# Molecular target: T1, extracellular domain (ECD) of human CD47 (19aa-139aa) with C-terminal 6xHis tag (human, UniProt Q08722 19-139)
# T1 construct: also called recombinant CD47; recombinant human CD47
# Assay: ELISA, recombinant human CD47; EC50 as grade, legend the 11th table, row 38
# T1 sequence (Q08722 other isoform, or with tags, fused parts or gaps limits assumed): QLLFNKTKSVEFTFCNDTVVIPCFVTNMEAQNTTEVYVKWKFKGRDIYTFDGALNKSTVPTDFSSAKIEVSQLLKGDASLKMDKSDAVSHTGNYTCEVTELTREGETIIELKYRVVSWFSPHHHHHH
row,EC50 [pM],Binder
1,10 to 500,"hu.18B9.3i (antibody, V domains shown, Humanised 18B9, parent of the alanine scan; also called hu.18B9.3i antibody) VH: EVQLVESGGGLVQPGGSLRLSCAASGFSFNSGYMSWVRQAPGKGLEWIASIYAGSSGKTYYADWAKGRFTISKTSSKTTVYLQMNSLRAEDTAVYYCARDSGGTYYTDYLYLWGQGTLVTVSS VL: DIQMTQSPSSLSASVGDRVTITCRASEGISSYLSWYQQKPGKAPKLLIYKASTLTSGVPSRFSGSGSGTDFTLTISSLQPEDFATYYCQSTYGSSGSSGYGAAFGGGTKVEIK"
2,500 to 5000,"hu.18B9.3i LC_Q89A (antibody, name in Kabat numbering, V domains shown, Alanine scan variant of hu.18B9.3i; Kabat numbering) VH: EVQLVESGGGLVQPGGSLRLSCAASGFSFNSGYMSWVRQAPGKGLEWIASIYAGSSGKTYYADWAKGRFTISKTSSKTTVYLQMNSLRAEDTAVYYCARDSGGTYYTDYLYLWGQGTLVTVSS VL: DIQMTQSPSSLSASVGDRVTITCRASEGISSYLSWYQQKPGKAPKLLIYKASTLTSGVPSRFSGSGSGTDFTLTISSLQPEDFATYYCASTYGSSGSSGYGAAFGGGTKVEIK"
3,10 to 500,"hu.18B9.3i LC_S95b_A (antibody, V domains shown, Alanine scan variant of hu.18B9.3i; Kabat numbering) VH: EVQLVESGGGLVQPGGSLRLSCAASGFSFNSGYMSWVRQAPGKGLEWIASIYAGSSGKTYYADWAKGRFTISKTSSKTTVYLQMNSLRAEDTAVYYCARDSGGTYYTDYLYLWGQGTLVTVSS VL: DIQMTQSPSSLSASVGDRVTITCRASEGISSYLSWYQQKPGKAPKLLIYKASTLTSGVPSRFSGSGSGTDFTLTISSLQPEDFATYYCQSTYGSSGASGYGAAFGGGTKVEIK"
4,10 to 500,"hu.18B9.3i LC_G95d_A (antibody, V domains shown, Alanine scan variant of hu.18B9.3i; Kabat numbering) VH: EVQLVESGGGLVQPGGSLRLSCAASGFSFNSGYMSWVRQAPGKGLEWIASIYAGSSGKTYYADWAKGRFTISKTSSKTTVYLQMNSLRAEDTAVYYCARDSGGTYYTDYLYLWGQGTLVTVSS VL: DIQMTQSPSSLSASVGDRVTITCRASEGISSYLSWYQQKPGKAPKLLIYKASTLTSGVPSRFSGSGSGTDFTLTISSLQPEDFATYYCQSTYGSSGSSAYGAAFGGGTKVEIK"
5,10 to 500,"hu.18B9.3i HC_T100b_A (antibody, V domains shown, Alanine scan variant of hu.18B9.3i; Kabat numbering) VH: EVQLVESGGGLVQPGGSLRLSCAASGFSFNSGYMSWVRQAPGKGLEWIASIYAGSSGKTYYADWAKGRFTISKTSSKTTVYLQMNSLRAEDTAVYYCARDSGGTYYADYLYLWGQGTLVTVSS VL: DIQMTQSPSSLSASVGDRVTITCRASEGISSYLSWYQQKPGKAPKLLIYKASTLTSGVPSRFSGSGSGTDFTLTISSLQPEDFATYYCQSTYGSSGSSGYGAAFGGGTKVEIK"
6,10 to 500,"hu.18B9.3i LC_G95a_A (antibody, V domains shown, Alanine scan variant of hu.18B9.3i; Kabat numbering) VH: EVQLVESGGGLVQPGGSLRLSCAASGFSFNSGYMSWVRQAPGKGLEWIASIYAGSSGKTYYADWAKGRFTISKTSSKTTVYLQMNSLRAEDTAVYYCARDSGGTYYTDYLYLWGQGTLVTVSS VL: DIQMTQSPSSLSASVGDRVTITCRASEGISSYLSWYQQKPGKAPKLLIYKASTLTSGVPSRFSGSGSGTDFTLTISSLQPEDFATYYCQSTYGSSASSGYGAAFGGGTKVEIK"
7,10 to 500,"hu.18B9.3i HC_Y100A (antibody, name in Kabat numbering, V domains shown, Alanine scan variant of hu.18B9.3i; Kabat numbering) VH: EVQLVESGGGLVQPGGSLRLSCAASGFSFNSGYMSWVRQAPGKGLEWIASIYAGSSGKTYYADWAKGRFTISKTSSKTTVYLQMNSLRAEDTAVYYCARDSGGTAYTDYLYLWGQGTLVTVSS VL: DIQMTQSPSSLSASVGDRVTITCRASEGISSYLSWYQQKPGKAPKLLIYKASTLTSGVPSRFSGSGSGTDFTLTISSLQPEDFATYYCQSTYGSSGSSGYGAAFGGGTKVEIK"
8,10 to 500,"hu.18B9.3i LC_T91A (antibody, name in Kabat numbering, V domains shown, Alanine scan variant of hu.18B9.3i; Kabat numbering) VH: EVQLVESGGGLVQPGGSLRLSCAASGFSFNSGYMSWVRQAPGKGLEWIASIYAGSSGKTYYADWAKGRFTISKTSSKTTVYLQMNSLRAEDTAVYYCARDSGGTYYTDYLYLWGQGTLVTVSS VL: DIQMTQSPSSLSASVGDRVTITCRASEGISSYLSWYQQKPGKAPKLLIYKASTLTSGVPSRFSGSGSGTDFTLTISSLQPEDFATYYCQSAYGSSGSSGYGAAFGGGTKVEIK"
9,10 to 500,"hu.18B9.3i LC_S95c_A (antibody, V domains shown, Alanine scan variant of hu.18B9.3i; Kabat numbering) VH: EVQLVESGGGLVQPGGSLRLSCAASGFSFNSGYMSWVRQAPGKGLEWIASIYAGSSGKTYYADWAKGRFTISKTSSKTTVYLQMNSLRAEDTAVYYCARDSGGTYYTDYLYLWGQGTLVTVSS VL: DIQMTQSPSSLSASVGDRVTITCRASEGISSYLSWYQQKPGKAPKLLIYKASTLTSGVPSRFSGSGSGTDFTLTISSLQPEDFATYYCQSTYGSSGSAGYGAAFGGGTKVEIK"
10,10 to 500,"hu.18B9.3i LC_S90A (antibody, name in Kabat numbering, V domains shown, Alanine scan variant of hu.18B9.3i; Kabat numbering) VH: EVQLVESGGGLVQPGGSLRLSCAASGFSFNSGYMSWVRQAPGKGLEWIASIYAGSSGKTYYADWAKGRFTISKTSSKTTVYLQMNSLRAEDTAVYYCARDSGGTYYTDYLYLWGQGTLVTVSS VL: DIQMTQSPSSLSASVGDRVTITCRASEGISSYLSWYQQKPGKAPKLLIYKASTLTSGVPSRFSGSGSGTDFTLTISSLQPEDFATYYCQATYGSSGSSGYGAAFGGGTKVEIK"
11,10 to 500,"hu.18B9.3i LC_S95A (antibody, name in Kabat numbering, V domains shown, Alanine scan variant of hu.18B9.3i; Kabat numbering) VH: EVQLVESGGGLVQPGGSLRLSCAASGFSFNSGYMSWVRQAPGKGLEWIASIYAGSSGKTYYADWAKGRFTISKTSSKTTVYLQMNSLRAEDTAVYYCARDSGGTYYTDYLYLWGQGTLVTVSS VL: DIQMTQSPSSLSASVGDRVTITCRASEGISSYLSWYQQKPGKAPKLLIYKASTLTSGVPSRFSGSGSGTDFTLTISSLQPEDFATYYCQSTYGSAGSSGYGAAFGGGTKVEIK"
12,10 to 500,"hu.18B9.3i LC_Y92A (antibody, name in Kabat numbering, V domains shown, Alanine scan variant of hu.18B9.3i; Kabat numbering) VH: EVQLVESGGGLVQPGGSLRLSCAASGFSFNSGYMSWVRQAPGKGLEWIASIYAGSSGKTYYADWAKGRFTISKTSSKTTVYLQMNSLRAEDTAVYYCARDSGGTYYTDYLYLWGQGTLVTVSS VL: DIQMTQSPSSLSASVGDRVTITCRASEGISSYLSWYQQKPGKAPKLLIYKASTLTSGVPSRFSGSGSGTDFTLTISSLQPEDFATYYCQSTAGSSGSSGYGAAFGGGTKVEIK"
13,10 to 500,"hu.18B9.3i LC_S94A (antibody, name in Kabat numbering, V domains shown, Alanine scan variant of hu.18B9.3i; Kabat numbering) VH: EVQLVESGGGLVQPGGSLRLSCAASGFSFNSGYMSWVRQAPGKGLEWIASIYAGSSGKTYYADWAKGRFTISKTSSKTTVYLQMNSLRAEDTAVYYCARDSGGTYYTDYLYLWGQGTLVTVSS VL: DIQMTQSPSSLSASVGDRVTITCRASEGISSYLSWYQQKPGKAPKLLIYKASTLTSGVPSRFSGSGSGTDFTLTISSLQPEDFATYYCQSTYGASGSSGYGAAFGGGTKVEIK"
14,10 to 500,"hu.18B9.3i HC_T99A (antibody, name in Kabat numbering, V domains shown, Alanine scan variant of hu.18B9.3i; Kabat numbering) VH: EVQLVESGGGLVQPGGSLRLSCAASGFSFNSGYMSWVRQAPGKGLEWIASIYAGSSGKTYYADWAKGRFTISKTSSKTTVYLQMNSLRAEDTAVYYCARDSGGAYYTDYLYLWGQGTLVTVSS VL: DIQMTQSPSSLSASVGDRVTITCRASEGISSYLSWYQQKPGKAPKLLIYKASTLTSGVPSRFSGSGSGTDFTLTISSLQPEDFATYYCQSTYGSSGSSGYGAAFGGGTKVEIK"
15,10 to 500,"hu.18B9.3i LC_Y95e_A (antibody, V domains shown, Alanine scan variant of hu.18B9.3i; Kabat numbering) VH: EVQLVESGGGLVQPGGSLRLSCAASGFSFNSGYMSWVRQAPGKGLEWIASIYAGSSGKTYYADWAKGRFTISKTSSKTTVYLQMNSLRAEDTAVYYCARDSGGTYYTDYLYLWGQGTLVTVSS VL: DIQMTQSPSSLSASVGDRVTITCRASEGISSYLSWYQQKPGKAPKLLIYKASTLTSGVPSRFSGSGSGTDFTLTISSLQPEDFATYYCQSTYGSSGSSGAGAAFGGGTKVEIK"
16,500 to 5000,"hu.18B9.3i HC_S96A (antibody, name in Kabat numbering, V domains shown, Alanine scan variant of hu.18B9.3i; Kabat numbering) VH: EVQLVESGGGLVQPGGSLRLSCAASGFSFNSGYMSWVRQAPGKGLEWIASIYAGSSGKTYYADWAKGRFTISKTSSKTTVYLQMNSLRAEDTAVYYCARDAGGTYYTDYLYLWGQGTLVTVSS VL: DIQMTQSPSSLSASVGDRVTITCRASEGISSYLSWYQQKPGKAPKLLIYKASTLTSGVPSRFSGSGSGTDFTLTISSLQPEDFATYYCQSTYGSSGSSGYGAAFGGGTKVEIK"
17,> 5000,"hu.18B9.3i HC_L100e_A (antibody, V domains shown, Alanine scan variant of hu.18B9.3i; Kabat numbering) VH: EVQLVESGGGLVQPGGSLRLSCAASGFSFNSGYMSWVRQAPGKGLEWIASIYAGSSGKTYYADWAKGRFTISKTSSKTTVYLQMNSLRAEDTAVYYCARDSGGTYYTDYAYLWGQGTLVTVSS VL: DIQMTQSPSSLSASVGDRVTITCRASEGISSYLSWYQQKPGKAPKLLIYKASTLTSGVPSRFSGSGSGTDFTLTISSLQPEDFATYYCQSTYGSSGSSGYGAAFGGGTKVEIK"
18,10 to 500,"hu.18B9.3i LC_G93A (antibody, name in Kabat numbering, V domains shown, Alanine scan variant of hu.18B9.3i; Kabat numbering) VH: EVQLVESGGGLVQPGGSLRLSCAASGFSFNSGYMSWVRQAPGKGLEWIASIYAGSSGKTYYADWAKGRFTISKTSSKTTVYLQMNSLRAEDTAVYYCARDSGGTYYTDYLYLWGQGTLVTVSS VL: DIQMTQSPSSLSASVGDRVTITCRASEGISSYLSWYQQKPGKAPKLLIYKASTLTSGVPSRFSGSGSGTDFTLTISSLQPEDFATYYCQSTYASSGSSGYGAAFGGGTKVEIK"
19,10 to 500,"hu.18B9.3i HC_L102A (antibody, name in Kabat numbering, V domains shown, Alanine scan variant of hu.18B9.3i; Kabat numbering) VH: EVQLVESGGGLVQPGGSLRLSCAASGFSFNSGYMSWVRQAPGKGLEWIASIYAGSSGKTYYADWAKGRFTISKTSSKTTVYLQMNSLRAEDTAVYYCARDSGGTYYTDYLYAWGQGTLVTVSS VL: DIQMTQSPSSLSASVGDRVTITCRASEGISSYLSWYQQKPGKAPKLLIYKASTLTSGVPSRFSGSGSGTDFTLTISSLQPEDFATYYCQSTYGSSGSSGYGAAFGGGTKVEIK"
20,10 to 500,"hu.18B9.3i LC_G95f_A (antibody, V domains shown, Alanine scan variant of hu.18B9.3i; Kabat numbering) VH: EVQLVESGGGLVQPGGSLRLSCAASGFSFNSGYMSWVRQAPGKGLEWIASIYAGSSGKTYYADWAKGRFTISKTSSKTTVYLQMNSLRAEDTAVYYCARDSGGTYYTDYLYLWGQGTLVTVSS VL: DIQMTQSPSSLSASVGDRVTITCRASEGISSYLSWYQQKPGKAPKLLIYKASTLTSGVPSRFSGSGSGTDFTLTISSLQPEDFATYYCQSTYGSSGSSGYAAAFGGGTKVEIK"
21,10 to 500,"hu.18B9.3i HC_Y100a_A (antibody, V domains shown, Alanine scan variant of hu.18B9.3i; Kabat numbering) VH: EVQLVESGGGLVQPGGSLRLSCAASGFSFNSGYMSWVRQAPGKGLEWIASIYAGSSGKTYYADWAKGRFTISKTSSKTTVYLQMNSLRAEDTAVYYCARDSGGTYATDYLYLWGQGTLVTVSS VL: DIQMTQSPSSLSASVGDRVTITCRASEGISSYLSWYQQKPGKAPKLLIYKASTLTSGVPSRFSGSGSGTDFTLTISSLQPEDFATYYCQSTYGSSGSSGYGAAFGGGTKVEIK"

# From US20240174750A1 (VIRTUOSO BINCO, published 2024)
